Experimental findings from the supplement of paper PMC12042874 are described below.

This data set can be described thus: amyloid nucleation score (Sup35N fusion, yeast selection) (log enrichment); library NNK2; higher = more nucleation; inactive = no reads after selection. The method, boiled down: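 After 24 hours of induction with 100 μM copper sulfate, psi-negative yeast expressing peptides of 20 random codons fused to Sup35N were grown for 7 days at 30°C on medium lacking adenine and uracil. Input and output plasmid inserts were sequenced with Illumina, and sequences with under 100 input reads were discarded. Scores for nucleation are the DiMSum log enrichment of output over input reads, centred on the mode score of non-aggregating sequences.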

± gives the uncertainty stated by the source.

MDFYCRWVVWFQEGNF: the amyloid nucleation score is 3.45 ± 0.058.
To MLCCCTLQVGFAYIFLFL belongs 3.28 ± 0.15; to RVRGSSVSISKLNKCKVVDT, 3.33 ± 0.091; to RGVVWRR, 0.23 ± 0.63.
RGDRSWGVRSCSRYDAAIAG displayed an amyloid nucleation score of 1.71 ± 0.38.
WPSLVLGYDMLGVI gave an amyloid nucleation score of -0.025 ± 1.1.
Substance SSTKFAHTFVHNKWVYSGFS came in with an amyloid nucleation score of 2.46 ± 0.11.
Regarding SLCLGHYFHGTAYNWVVLYI, the amyloid nucleation score came out at 0.213 ± 0.8.
To ETHVRMWAHFWQTTLRCHKS belongs 1.72 ± 0.16; to IVCITTSNVLTCDIDGNITK, 4.27 ± 0.044.
Consider RITFV, for which the amyloid nucleation score was -0.64 ± 0.76.
Substance GYMYCISATCRDLSKGRTGT came in with an amyloid nucleation score of -0.221 ± 0.39.
Consider SFLKSMMAPIYKCSVWCSML, for which the amyloid nucleation score is -0.819 ± 0.64.
On to LRFYAFRLDALSLISKSGVQ, for which the amyloid nucleation score was found to be 1.08 ± 0.36.
To LSHMFVTALIVIEKFCLTAL belongs 0.111 ± 0.39; to RHHGVRIYMRNFGNVYVYIR, 3.85 ± 0.11.
The substance EFLRNGLFKEVAS had an amyloid nucleation score of 0.202 ± 0.64.
Substance VRFKYIYHTGLDDVAVNQY showed an amyloid nucleation score of -0.487 ± 0.55.
Take VNQFNVIIKD: the amyloid nucleation score came out at 3.33 ± 0.1.
To WHQVRPARV belongs 1.17 ± 0.3; to LSIQLTEHA, 2.13 ± 0.079; to LECCG, -0.838 ± 0.55.
To IFVCAMV belongs 0.395 ± 0.65.
SVDIKIFLQPAYFCNATAAV registered an amyloid nucleation score of 6.435 ± 0.039.
ARNPDFRCDSASI returned an amyloid nucleation score of -0.146 ± 1.
LCDLVKASSMFANGSDHFIV registered an amyloid nucleation score of -0.569 ± 0.61.
To SWTHRAGYIKRMSE belongs -0.212 ± 0.55.
The value for IFHHPNHIHVDQFSPLLFYE was -0.64 ± 0.79; that for VLIFRAMIFDDKALVGMKD was -0.521 ± 0.45; that for QGSNCLHYRLSIIS was -1.05 ± 1.1.
The substance FGMYPVVGCLDRLYWMRLYA came in with an amyloid nucleation score of 0.539 ± 0.81.
In the case of DGALNTFIDYGLSTAIKKIN, the amyloid nucleation score entry was “inactive”.
The value for MYVFMVSFYMGFCKYQNSVI was “inactive”; that for VSFATRRSSNNILTGW was -0.557 ± 1.1; that for VTLNTVDFPTGICKSSGARW was -0.236 ± 0.42.
In the case of MIRKVYYSF, the amyloid nucleation score is -0.77 ± 1.
Substance AIWGTHPQRRDIRKRERIVV came in with an amyloid nucleation score of -0.205 ± 0.27.
As to MLCRYVVVQGLKVNMGHVFC, the amyloid nucleation score came out at 7.567 ± 0.065.
To GTFSCGSGEI belongs 0.534 ± 0.8; to AMTTRFCGVFLKGWL, 0.176 ± 0.64; to FNISSNVICDNFRDPLVESD, -1.87 ± 0.78.
LIFEEQENAGGMASIMSSMV: the amyloid nucleation score was determined as 0.463 ± 0.3.
Turning to PTSDALLKCSAPFCSVRPVP, the amyloid nucleation score worked out at 0.138 ± 0.76.
Substance LTRFMYYLFTDLC displayed an amyloid nucleation score of -0.813 ± 1.1.
Take DRLLDLIVWGVFWQLGMRFL: the amyloid nucleation score result is “inactive”.
To CLDPTDTMMRW belongs 0.82 ± 0.3; to RVPFFVGAG, -0.271 ± 0.74.
Regarding TLLSASYGV, the amyloid nucleation score was -0.742 ± 0.79.
Consider RIDRFLFASGHEGYAVN, for which the amyloid nucleation score amounted to 4.507 ± 0.033.
ILLPSFRPLRQAAAG registered an amyloid nucleation score of -0.311 ± 0.79.
For KHSDSTGARQWGNNVYKLDD, the amyloid nucleation score was 0.366 ± 0.2.
With FIADIVYLMNFGEIWG, the amyloid nucleation score was 4.68 ± 0.1.
The value for SYFMRDSTN was “inactive”.
LERGENEVRWTKKLRIKFVF registered an amyloid nucleation score of -0.228 ± 1.1.
The substance RQEFNCIASCRF registered an amyloid nucleation score of 2.12 ± 0.091.
On to HNLMCYGWNFLSVSVVDNCD, for which the amyloid nucleation score was 6.552 ± 0.05.
Take VNIERGFLRLKRLD: the amyloid nucleation score was -0.316 ± 1.1.
As to TWGPWTLMSVLSCGVYGSHG, the amyloid nucleation score came to 4.3 ± 0.084.
Consider FDLNSTVWIRCGGLILRLKP, for which the amyloid nucleation score was 0.01 ± 0.25.
Regarding MARTISAGSVLFNLGSRIWH, the amyloid nucleation score result is “inactive”.
IRYFR showed an amyloid nucleation score of 0.371 ± 0.13.
In the case of LDPLRPG, the amyloid nucleation score was found to be 1.14 ± 0.39.
To RLVTWGISQNRLAQLY belongs -0.001 ± 0.33; to VKLHSVSYLIFLL, 4.8 ± 0.11; to KVMVRLGSNSAAKYFYVNRV, 3.84 ± 0.057.
Take ARCIQVMVIGISWRVGCMPT: the amyloid nucleation score came to 0.521 ± 0.36.
WPFPKSRNRS came in with an amyloid nucleation score of -0.076 ± 0.79.
Take SWCFVNGWWLYESAWEVMDS: the amyloid nucleation score was -0.199 ± 1.1.
The substance WCNALFDWMLVAVCGGYYVY showed an amyloid nucleation score of -0.502 ± 0.37.
As to VIVWFWRFQNMNVAREFMAE, the amyloid nucleation score is -0.297 ± 0.37.
The value for HIMIFWYPVLTIKVQYDVGV was “inactive”; that for PISNAYCMGTNRSLRIGIRC was 0.641 ± 0.21.
The substance SEYVDFYGFLGLVFTLRRSA yielded an amyloid nucleation score of 0.43 ± 0.64.
In turn, VLGGLCSVFGDDGTAYYSSS gave an amyloid nucleation score of 0.417 ± 0.36.
For the substance SPLVLGFSRK, the amyloid nucleation score is -1.02 ± 0.76.
Substance SLVTISFLGLFGSSSALVVA registered an amyloid nucleation score of -0.114 ± 1.1.
Regarding CDRFYSSLVNSVGYCLLNAY, the amyloid nucleation score was determined as 1.47 ± 0.21.
Take NNKFLQVSYS: the amyloid nucleation score was -0.409 ± 0.78.
Consider LGYIWLALRIVNCLDNGVPY, for which the amyloid nucleation score was -1 ± 0.44.
As to SVFYIYWRSWLFFRSLGLFI, the amyloid nucleation score entry is “inactive”.
In the case of RCFNLWSNSVLFNCSVCSAE, the amyloid nucleation score is 7.414 ± 0.065.
The value for TFYYTAECWAWRNMQESSHT was 0.054 ± 0.32; that for FMQGPFNYTRMLSL was -0.808 ± 1.1.
As to RTDSGTMMCRVWAMYPESTS, the amyloid nucleation score turned out to be 1.22 ± 0.41.
In turn, SGVHNYSARVG displayed an amyloid nucleation score of -0.442 ± 0.46.
The value for VYMSQWSKVFALFALNFKVN was 1.84 ± 0.2; that for SIFLREDVVFSDLLRWFR was 5.572 ± 0.045.
RCRHLLSMPLPVSFEMDGRG displayed an amyloid nucleation score of 2.85 ± 0.099.
Substance GMYNLSSGYRCERVGVAENI yielded an amyloid nucleation score of -0.513 ± 0.3.
In turn, SMRVVCYWVLRW yielded an amyloid nucleation score of 3.16 ± 0.075.
NSRQYSVMIVQLIPCCQLIP: the amyloid nucleation score was 0.033 ± 0.6.
Take AVMWTK: the amyloid nucleation score turned out to be 0.669 ± 0.52.
The substance DIHQFGCTHIGCVIGYCCRV displayed an amyloid nucleation score of 8.504 ± 0.031.
As to SLEGLSCFTLANCLLR, the amyloid nucleation score stood at 0.288 ± 0.24.
FISSVIIGYSDPGVEGILLV displayed an amyloid nucleation score of -0.922 ± 0.78.
Turning to SLLGRRIFWLCHEFMSSSLV, the amyloid nucleation score was 0.21 ± 1.
In turn, GLYHFRVITASKSQMEGFLM displayed an amyloid nucleation score of -0.018 ± 1.1.
On to FNSSLWVFRIPNCCNRSAYC, for which the amyloid nucleation score entry is “inactive”.
For the substance FDWISVRGTGWFCLRWWLYV, the amyloid nucleation score entry is “inactive”.
KFMVLITVRMIVIRPVSVRS registered an amyloid nucleation score of 0.647 ± 0.58.
EEYFDWSMKCKLIYINRVPL returned an amyloid nucleation score of -0.358 ± 1.
The substance WLPMYL came in with an amyloid nucleation score of 0.194 ± 0.26.
In turn, AFYCQRDRVE gave an amyloid nucleation score of 3.18 ± 0.099.
The substance TQINEVLL showed an amyloid nucleation score of -0.722 ± 0.28.
Regarding GVRWYAMRPEVGYL, the amyloid nucleation score was 0.155 ± 1.1.
On to YPKFYIWYYVYRLLALTCVY, for which the amyloid nucleation score is -1.03 ± 0.37.
In the case of MTMGEKTLCPWNHSDLAPSR, the amyloid nucleation score worked out at 0.966 ± 0.49.
To SYFSVKHDRR belongs -0.228 ± 0.35.
Turning to CRRENRCNRWFQ, the amyloid nucleation score was -0.602 ± 0.61.
In the case of KRSFVIRNLGFCALRLHISV, the amyloid nucleation score was determined as 4.63 ± 0.11.
With SLIFSDPHLVIALNFT, the amyloid nucleation score was determined as 8.898 ± 0.061.
The substance SYGLRSC gave an amyloid nucleation score of 0.174 ± 0.63.
On to SKLNAHVLAVFRLNEMNNHQ, for which the amyloid nucleation score is 3.48 ± 0.056.
Regarding FYIKRVTAVNCDTDSSFNVL, the amyloid nucleation score was -0.805 ± 0.42.
FMTVSDTMFHRIVASPQVPA came in with an amyloid nucleation score of 0.87 ± 0.32.
KFCCT: the amyloid nucleation score is 3.47 ± 0.1.
Turning to WDHLFASFFFLPLMLYGRYY, the amyloid nucleation score entry was “inactive”.
For VYYAGSK, the amyloid nucleation score is -0.562 ± 1.1.
INFYIDIWISIRREGFAFRP: the amyloid nucleation score worked out at 1.97 ± 0.25.
In turn, HLSCDWVLIDEGLACYM gave an amyloid nucleation score of -0.586 ± 0.54.
On to RKSVWYCDIFIIEYPDFSYS, for which the amyloid nucleation score was found to be 2.07 ± 0.1.
For the substance VSKSFWGMGWSLRYSGFSRV, the amyloid nucleation score is -0.262 ± 0.41.
On to TPSECRCWEEFHGWTHLLRL, for which the amyloid nucleation score was determined as 0.461 ± 0.48.
The value for SINIYNFAQVSAFYCGLVEC was 5.45 ± 0.078; that for NHVCRIVTMFGVPSRSN was “inactive”; that for SYFYPCLRNLYLPLWWRSHS was -0.515 ± 0.38.
With LFYGNHWAPASWIWN, the amyloid nucleation score came to 2.34 ± 0.15.
As to VLRHLD, the amyloid nucleation score was 0.44 ± 0.54.
CDCWYFKC had an amyloid nucleation score of 5.42 ± 0.095.
Regarding SILCLLNRLTFREYLMVFID, the amyloid nucleation score is -0.583 ± 0.55.
FDVSWMARVELSIM returned an amyloid nucleation score of -0.018 ± 0.33.
In the case of MRCNFADSAYRMISMTV, the amyloid nucleation score was determined as 0.412 ± 0.55.
The substance EVLRKQIVRTRAVQVHFCLT yielded an amyloid nucleation score of 1.15 ± 0.15.
In the case of GSCSEHTKLLI, the amyloid nucleation score was -0.455 ± 0.37.
As for SQSNMILYWADRF, the amyloid nucleation score was determined as 5.33 ± 0.057.
Turning to VVYVVHFYFEYVGNVVARAK, the amyloid nucleation score entry is “inactive”.
On to VFNLL, for which the amyloid nucleation score entry is “inactive”.
The value for VLYVGWFRAKDNIVFLTYGC was -0.158 ± 0.61.
Consider CAQVRLQSAFIYSYMASVGR, for which the amyloid nucleation score turned out to be 3.32 ± 0.056.
In turn, KMLPSGARDLMPMDLLDFMM showed an amyloid nucleation score of -0.234 ± 0.25.
